# Measured values published in patent publication US20240158474A1 (SINO BIOLOGICAL, published 2024).
# B1: monoclonal antibody HPV6-R003 (antibody, V domains shown)
# VH: QQQLEESGGGLVKPGGTLTLTCKASGIDLSNYYMCWVRQAPGKGLEWIGCIYTGSGRTYYASWAKGRFTISKASSTTVTLQMTSLTAADTATYFCARDYLGWRASNIWGPGTLVTVSS
# VL: ELVMTQTPSSVSAAVGGTVTINCQASQSVYSNNLVWYQQKPGQPPKLLIYGASTLASGVPSRFKGSGSGTQFTLTISDVVCDDAATYYCGGYVSDSTDGTAFGGGTEVVVKG
# notes: here built from variable plus constant region so that the signal peptides are left out; In the sandwich ELISA the same antibody is used as coating antibody and, labelled with horseradish peroxidase, as detection antibody; also called anti-HPV6 L1 protein antibody
# Key:
# [1] = molecular target: T1, HPV58 VLP protein (human papillomavirus type 58, UniProt P26535 27-499); experiment: indirect ELISA on coated VLP
# T1 construct: Complete VLP protein; no limits of the construct printed, whole entry named; also called P58SHELL
# T1 sequence: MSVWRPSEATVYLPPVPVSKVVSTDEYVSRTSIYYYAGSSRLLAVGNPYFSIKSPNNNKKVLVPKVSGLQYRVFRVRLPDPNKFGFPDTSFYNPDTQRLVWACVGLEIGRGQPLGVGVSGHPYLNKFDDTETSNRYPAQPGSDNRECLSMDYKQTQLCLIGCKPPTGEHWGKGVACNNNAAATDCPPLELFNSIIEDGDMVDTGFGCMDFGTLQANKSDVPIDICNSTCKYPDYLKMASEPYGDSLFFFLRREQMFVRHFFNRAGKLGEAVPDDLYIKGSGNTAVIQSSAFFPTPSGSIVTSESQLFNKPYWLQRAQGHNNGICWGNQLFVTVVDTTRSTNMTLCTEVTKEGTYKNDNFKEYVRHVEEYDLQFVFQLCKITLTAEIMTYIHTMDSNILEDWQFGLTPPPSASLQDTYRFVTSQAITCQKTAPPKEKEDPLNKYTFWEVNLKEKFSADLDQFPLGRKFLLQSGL
# [2] = molecular target: T2, HPV11 VLP protein (human papillomavirus type 11; human …, UniProt P04012 1-470; P06416 474-499); experiment: indirect ELISA on coated VLP
# T2 construct: range 1-470;range 474-499; Complete VLP protein used as coating protein
# T2 sequence: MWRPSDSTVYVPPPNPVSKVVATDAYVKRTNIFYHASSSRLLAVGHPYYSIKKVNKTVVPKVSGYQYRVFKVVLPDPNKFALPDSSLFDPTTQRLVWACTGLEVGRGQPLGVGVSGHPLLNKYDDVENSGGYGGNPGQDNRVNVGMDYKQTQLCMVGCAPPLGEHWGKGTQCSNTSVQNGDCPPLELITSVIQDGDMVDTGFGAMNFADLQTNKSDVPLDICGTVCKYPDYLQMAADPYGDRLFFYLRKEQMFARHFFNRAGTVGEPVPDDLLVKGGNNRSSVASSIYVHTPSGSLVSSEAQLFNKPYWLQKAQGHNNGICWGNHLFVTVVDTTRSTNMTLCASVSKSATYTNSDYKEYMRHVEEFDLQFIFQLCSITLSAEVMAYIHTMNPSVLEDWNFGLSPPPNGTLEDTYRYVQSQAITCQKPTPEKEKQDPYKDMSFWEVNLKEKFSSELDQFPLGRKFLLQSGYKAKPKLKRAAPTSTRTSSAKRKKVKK
# [3] = molecular target: T3, HPV45 VLP protein (human papillomavirus type 45; human …, UniProt P36741 1-478; P06416 474-499); experiment: indirect ELISA, VLP coated at 2 µg/mL, antibody 10 ng/mL, HRP goat anti-rabbit Fc
# T3 construct: range 1-478;range 474-499; Complete VLP protein used as coating protein; also called HPV45L1(1-478L)+HPV33L1(474K-499K)
# T3 sequence: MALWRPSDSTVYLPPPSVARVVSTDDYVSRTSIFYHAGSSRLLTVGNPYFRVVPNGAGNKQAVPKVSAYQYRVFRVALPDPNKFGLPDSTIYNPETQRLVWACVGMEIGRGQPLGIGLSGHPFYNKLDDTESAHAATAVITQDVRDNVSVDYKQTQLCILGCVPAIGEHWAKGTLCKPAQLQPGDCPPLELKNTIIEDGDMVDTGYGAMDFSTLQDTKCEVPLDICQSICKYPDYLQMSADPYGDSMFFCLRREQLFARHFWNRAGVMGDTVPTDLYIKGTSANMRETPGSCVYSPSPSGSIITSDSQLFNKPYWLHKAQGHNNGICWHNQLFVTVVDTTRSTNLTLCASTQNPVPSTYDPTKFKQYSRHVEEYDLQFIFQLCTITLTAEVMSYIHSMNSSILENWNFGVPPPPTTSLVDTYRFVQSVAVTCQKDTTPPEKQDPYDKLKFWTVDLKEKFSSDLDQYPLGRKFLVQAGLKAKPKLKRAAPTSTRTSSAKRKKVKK
# [4] = molecular target: T4, HPV52 VLP protein (human papillomavirus type 52, UniProt Q05138 27-504); experiment: as above
# T4 construct: Complete VLP protein; no limits of the construct printed, whole entry named; also called P52SHELL
# T4 sequence: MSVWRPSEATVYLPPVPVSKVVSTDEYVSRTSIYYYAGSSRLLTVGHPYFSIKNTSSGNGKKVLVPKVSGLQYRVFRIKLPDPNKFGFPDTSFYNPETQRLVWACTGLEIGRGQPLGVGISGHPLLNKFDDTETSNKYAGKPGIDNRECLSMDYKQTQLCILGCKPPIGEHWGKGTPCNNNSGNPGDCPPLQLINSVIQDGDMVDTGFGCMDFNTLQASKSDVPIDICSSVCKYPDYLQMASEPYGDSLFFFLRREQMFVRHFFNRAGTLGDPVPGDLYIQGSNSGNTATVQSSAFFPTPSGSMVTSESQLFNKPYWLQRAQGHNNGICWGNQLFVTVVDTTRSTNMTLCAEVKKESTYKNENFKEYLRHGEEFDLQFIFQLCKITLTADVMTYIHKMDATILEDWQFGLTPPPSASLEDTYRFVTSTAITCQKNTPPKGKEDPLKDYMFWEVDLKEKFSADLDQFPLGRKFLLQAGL
# [5] = molecular target: T5, HPV35 VLP protein (human papillomavirus type 35; human …, UniProt P27232 1-472; P06416 474-499); experiment: as above
# T5 construct: range 1-472;range 474-499; Complete VLP protein used as coating protein; also called HPV35L1(1-472L)+HPV33L1(474K-499K)
# T5 sequence: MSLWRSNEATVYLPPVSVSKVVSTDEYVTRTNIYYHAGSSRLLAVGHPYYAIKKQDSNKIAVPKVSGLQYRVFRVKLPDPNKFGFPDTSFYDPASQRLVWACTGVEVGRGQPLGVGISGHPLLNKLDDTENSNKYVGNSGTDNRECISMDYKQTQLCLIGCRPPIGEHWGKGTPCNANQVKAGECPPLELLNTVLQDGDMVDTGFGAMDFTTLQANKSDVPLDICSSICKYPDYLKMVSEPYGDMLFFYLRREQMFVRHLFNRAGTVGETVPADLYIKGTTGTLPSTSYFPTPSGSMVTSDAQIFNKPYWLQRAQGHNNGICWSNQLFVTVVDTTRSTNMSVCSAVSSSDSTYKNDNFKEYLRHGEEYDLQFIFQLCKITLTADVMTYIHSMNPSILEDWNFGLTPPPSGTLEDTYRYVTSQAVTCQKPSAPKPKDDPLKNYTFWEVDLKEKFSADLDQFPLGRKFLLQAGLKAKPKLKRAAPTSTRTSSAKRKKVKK
binder,measurement,setting,value
B1,binding result,[1],no binding (tested: antibody 10 ng/mL; coating 2 µg/mL)
same,binding result,[2],no binding (tested: antibody 10 ng/mL; coating 2 µg/mL)
same,OD450-blank,[3],0.061 OD450
same,OD450-blank,[4],0.044 OD450
same,OD450-blank,[5],0.048 OD450
